Reference: article doi:10.1101/2025.05.28.656718 (bioRxiv, 2025)

B1: Recombinant SARM1 (affinity tags removed by TEV protease) (natural protein, human, UniProt Q6SZW1 28-724, looked up)
chain: LAVPGPDGGGGTGPWWAAGGRGPREVSPGAGTEVQDALERALPELQQALSALKQAGGARAVGAGLAEVFQLVEEAWLLPAVGREVAQGLCDAIRLDGGLDLLLRLLQAPELETRVQAARLLEQILVAENRDRVARIGLGVILNLAKEREPVELARSVAGILEHMFKHSEETCQRLVAAGGLDAVLYWCRRTDPALLRHCALALGNCALHGGQAVQRRMVEKRAAEWLFPLAFSKEDELLRLHACLAVAVLATNKEVEREVERSGTLALVEPLVASLDPGRFARCLVDASDTSQGRGPDDLQRLVPLLDSNRLEAQCIGAFYLCAEAAIKSLQGKTKVFSDIGAIQSLKRLVSYSTNGTKSALAKRALRLLGEEVPRPILPSVPSWKEAEVQTWLQQIGFSKYCESFREQQVDGDLLLRLTEEELQTDLGMKSGITRKRFFRELTELKTFANYSTCDRSNLADWLGSLDPRFRQYTYGLVSCGLDRSLLHRVSEQQLLEDCGIHLGVHRARILTAAREMLHSPLPCTGGKPSGDTPDVFISYRRNSGSQLASLLKVHLQLHGFSVFIDVEKLEAGKFEDKLIQSVMGARNFVLVLSPGALDKCMQDHDCKDWVHKEIVTALSCGKNIVPIIDGFEWPEPQVLPEDMQAVLTFNGIKWSHEYQEATIEKIIRFLQGRSSRDSSAGSDTSLEGAAPMGPT

Legend:
His-tagged PKM1 = His-tagged PKM1 (human, UniProt P14618-2 1-531); assay: AlphaScreen or HTRF
[1] = molecular target: B1; assay: SPR

| IC50 (His-tagged PKM1) | Kd [1] | Binder |
| --- | --- | --- |
| 3460 nM |  | B1 |
|  | 2890 nM | Recombinant PKM1 (His-SUMO tag removed) (enzyme) not shown |
|  | 1310 nM | Recombinant PKM2 (His-SUMO tag removed) (enzyme) not shown |
